Experiment [1] has as its system NTSR1 linear L2-biotin protein. Description: Binding affinity of the humanized antibodies by ELISA. The arrangement: species or system human. The conditions noted are these: for binding signal for NTSR1 in binding ELISA: FIG. 4; for Kd: binding ELISA, non-linear regression. As for the experimental part: ELISA plates were coated with 1-2 μg/100 μL per well of NTSR1 linear L2-biotin protein. Wells were rinsed for 3 times with PBS and blocked with 300 μL of 5% MPBS per well for 2 hr at 37° C. After washing with PBS, wells were incubated with serial diluted NTSR1 antibodies in 5% MPBS for 1.5 hours at 37° C. The plates were washed and goat polyclonal anti-human IgG-HRP antibody (1:10,000) (JACKSON IMMUNORESEARCH®) was added into each well. The OD at 650 nm and at 450 nm was read. Readings were obtained by subtracting OD650 from OD450 and the binding affinities of antibodies were calculated by non-linear regression with Prism software (GRAPHPAD®).
On the technique in general: In an ELISA, binding on a coated surface is turned into a signal by an enzyme label.

Experiment [2] deals with NTSR1 expressing cells, FaDu. Description: Cell-binding assay by FACS. The arrangement: species or system human. As for the experimental part:
Anti-NTSR1 antibodies were used to detect cells that express NTSR1 on the cell surfaces, for example using FACS. NTSR1 expressing cells, FaDu, were harvested and re-suspended in 5% PBS/FBS buffer. The cells (1×10^5) were incubated with anti-NTSR1 antibody (1-10 μg/ml) or negative control, at 4° C. for 1 hr, and then stained with goat anti-human IgG FITC conjugate ( 1/1000) at 4° C. for 1 hr. For each assay, two additional controls were prepared; one without primary antibody and the other one with absence of any antibody. All treated samples were analyzed with FACSVERSE™ (BECTON DICKINSON®) and the results were processed by FACSUITE™ software (BECTON DICKINSON®).
In general terms: A flow cytometer gives signals particle by particle.

B1: 7C3 HdHd: humanized anti-NTSR1 antibody, 7C3 HdVH (SEQ ID NO: 11) and 7C3 HdVL (SEQ ID NO: 12) (antibody, V domains shown)
VH: EVQLVESGGGLVQPGGSLRLSCAASGYTFTSSWIHWVRQAPGKGLEWVAQIRPNSGNTYYNEKFKVRFTISRDDSKNTLYLQMNSLRAEDTAVYYCARYYYGFDYWGQGTLVTVSS
VL: DIQMTQSPSSLSASVGDRVTITCRSSQSIVHSNGNTYLEWYQQKPGKAPKLLIYKVSNRFSGVPSRFSGSGSGTDFTLTISSLQPEDFATYYCFQGSHLPWTFGQGTKVEIK
In the case of B1, in experiment [1], the “binding signal for NTSR1 in binding ELISA” value (“binding signal for NTSR1” below) is on record as “much lower binding signals”.

B2: 7C3 HuHd: humanized anti-NTSR1 antibody, 7C3 HuVH paired with 7C3 HdVL (antibody, V domains shown)
VH: QVQLVQSGAEVKKPGASVKVSCKASGYTFTSSWIHWVRQAPGQGLEWMGQIRPNSGNTYYNEKFKVRVTMTRDTSTSTVYMELSSLRSEDTAVYYCARYYYGFDYWGQGTLVTVSS
VL: B1 VL
As to B2, the “binding to FaDu cells” value is given as “do not bind well” in experiment [2] (concentration of 1 μg/mL) and “do not bind significantly” in experiment [2] (concentration of 10 μg/mL). In addition, in experiment [1], the “binding signal for NTSR1” value is given as “good binding signal”.

B3: 7C3 HdHu: humanized anti-NTSR1 antibody, presumably 7C3 HdVH paired with 7C3 HuVL (antibody, V domains shown)
VH: B1 VH
VL: DIVMTQTPLSLSVTPGQPASISCRSSQSIVHSNGNTYLEWYLQKPGQSPQLLIYKVSNRFSGVPDRFSGSGSGTDFTLKISRVEAEDVGVYYCFQGSHLPWTFGQGTKVEIK
Turning to B3, the “binding signal for NTSR1” value in experiment [1] was “much lower binding signals”.

B4: 7C3 MM: mouse-human chimera anti-NTSR1 antibody, m7C3 VH (SEQ ID NO: 7) and m7C3 VL (SEQ ID NO: 8) (antibody, V domains shown)
VH: QVQLQQPGSVLVRPGDSVMLSCKASGYTFTSSWIHWAKQRPGQGPEWIGQIRPNSGNTYYNEKFKVKATLTVDTSSSTAYVDLSSLTSEDSAVYYCARYYYGFDYWGQGTTVTVSS
VL: DVLMTQTPLSLPVSLGDQASISCRSSQSIVHSNGNTYLEWYLQKPGQSPKLLIYKVSNRFSGVPDRFSGSGSGTDFTLKISRVEAEDLGVYYCFQGSHLPWTFGGGTKLEIK
What is called Kd is the concentration at which binding is half-saturated. B4: the figures for the “binding to FaDu cells” value in experiment [2] (concentration of 1 μg/mL) and in experiment [2] (concentration of 10 μg/mL) were “do not bind well” and “do not bind significantly”, respectively. In experiment [1], the affinity, expressed as Kd, was 676 pM.

B5: 7C3 HuHu: humanized anti-NTSR1 antibody, 7C3 HuVH (SEQ ID NO: 13) and 7C3 HuVL (SEQ ID NO: 14) (antibody, V domains shown)
VH: B2 VH
VL: B3 VL
Regarding B5, the “binding to FaDu cells” value in experiment [2] (concentration of 1 μg/mL) is “do not bind well”; in experiment [2] (concentration of 10 μg/mL) it was “do not bind significantly”. Besides, the “binding signal for NTSR1” value in experiment [1] is “good binding signal”. The molecule further showed a Kd in experiment [1] of 294 pM.

These data come from patent US12091454B2, “Humanized anti-human neurotensin receptor 1 antibodies and their uses” (DEVELOPMENT CENTER FOR BIOTECHNOLOGY, priority 2022, dated 2024).
